Assay [1] deals with cross-linked self-assembled CA tubes (CA A14C/E45C co-assembled with CA K158C-AF488) (HIV-1). As to the kind of experiment: TIRF fluorescence microscopy binding assay; cross-linked CA tubes held on the cover slip by an anti-p24 antibody; CypA 1-50 uM (1 uM AF647-CypA plus unlabelled CypA) flowed in; 50 mM Tris pH 8, 150 mM NaCl; equilibrium binding model on the CypA:CA molar ratio.

The target in assay [2] is biotinylated cross-linked CA hexamer (CA A14C/E45C/W184A/M185A) (HIV-1). As to the kind of experiment: SPR; Biacore S200; biotinylated CA K158C or biotinylated CA hexamer immobilised on streptavidin-modified CM5 chip; CypA injected at 1.1-72.8 uM; 10 mM HEPES pH 8, 0.005% Tween 20, 2 mM EDTA, 150 mM NaCl; equilibrium analysis, single experiments. (In SPR one partner is held on a chip, and binding of the other changes the refractive index at the surface.)

The target of assay [3] is biotinylated CA K158C (unassembled HIV-1 CA) (HIV-1). The description is as above.
Assay [4] concerns the target native HIV-1 capsid (wild type CA lattice of authentic viral cores) (HIV-1 (pNL4.3-iGFP-ΔEnv and psPAX2)). As to the kind of experiment: TIRF fluorescence microscopy binding assay.
Assay [5] has the same target. Kind of assay: TIRF fluorescence microscopy binding assay. The source holds these as a separate data set.

Like-named read-outs stand apart in the source and are kept apart here.

As usually defined, the Kd is the concentration at which binding is half-saturated. What is called stoichiometry N is a count of units in the complex or per binding partner.

With CypA K30D (enzyme), the Kd in assay [1] is 17 µM; in assay [2], 35.7 µM; in assay [3] it was 37.9 µM. Besides, the stoichiometry N (molar ratio of CypA:CA when saturated) in assay [1] turned out to be 0.39.
As to CypA P29K (enzyme), the values for the Kd in assay [1], in assay [2] and in assay [3] were 16.4 µM, 21 µM and 20.6 µM, respectively. For the same substance, the stoichiometry N (molar ratio of CypA:CA when saturated) in assay [1] turned out to be 0.32.
Consider CypA A25D (enzyme), for which the Kd in assay [4] was 8.7 µM; in assay [1] it was 17.2 µM; in assay [2] it was 20.8 µM; in assay [3], 22.6 µM; in assay [5] it was 11.2 µM. In addition, the stoichiometry N (molar ratio of CypA:CA when saturated) in assay [1] was 0.39. Moreover, the stoichiometry N in assay [5] (scale: CypA loops occupied at saturation per capsid) was 877; in assay [5] (scale: CypA molecules bound per capsid at saturation) it was 688.
Consider CypA K27D (enzyme), for which the Kd in assay [1] came to 17.7 µM; in assay [2], 21.7 µM; in assay [3], 28.5 µM. In addition, in assay [1], the stoichiometry N (molar ratio of CypA:CA when saturated) was determined as 0.24.
